Values of other authors, collected in paper PMC2933916.

Biological target: S100B (UniProt P04271)

- Kd: < 500 pM
Substance: S100B (from UniProt P04271)
